Assay results as given in the supplement of paper PMC9112550, “Optimization of the antimicrobial peptide Bac7 by deep mutational scanning” (BMC Biology, 2022).

Tested on: Escherichia coli TOP10
Assay: shrunken log2 fold change of peptide-encoding DNA abundance (4.5 h post-induction vs induction); higher = less antimicrobial activity (less host growth inhibition)
Settings: time post-induction: 4.5 h; library: site-saturation at positions 5, 18, 19, 20
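Further: peptides expressed intracellularly from a pBAD plasmid library in pooled LB shake-flask culture, induced with 0.3% L-arabinose, DNA abundance read by NGS, three biological replicates, DESeq2 with apeglm shrinkage.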

Row | Sequence | shrunken log2 fold change
1 | RRIRMRPPRLPRPRPRPHLVPRP | -0.0163
2 | RRIRMRPPRLPRPRPRPHMLPRP | -0.245
3 | RRIRMRPPRLPRPRPRPHMQPRP | -0.122
4 | RRIRMRPPRLPRPRPRPHMRPRP | 0.509
5 | RRIRMRPPRLPRPRPRPHMWPRP | 0.108
6 | RRIRMRPPRLPRPRPRPHPSPRP | -0.127
7 | RRIRMRPPRLPRPRPRPHQQPRP | 0.107
8 | RRIRMRPPRLPRPRPRPHRDPRP | 0.169
9 | RRIRMRPPRLPRPRPRPHRQPRP | 0.532
10 | RRIRMRPPRLPRPRPRPHSFPRP | 0.0932
11 | RRIRMRPPRLPRPRPRPHTQPRP | 0.614
12 | RRIRMRPPRLPRPRPRPHVIPRP | 0.00402
13 | RRIRMRPPRLPRPRPRPIAVPRP | -0.015
14 | RRIRMRPPRLPRPRPRPIAYPRP | 0.0419
15 | RRIRMRPPRLPRPRPRPICHPRP | 0.0206
16 | RRIRMRPPRLPRPRPRPIDQPRP | 0.0164
17 | RRIRMRPPRLPRPRPRPIFSPRP | 0.0637
18 | RRIRMRPPRLPRPRPRPIGSPRP | 0.079
19 | RRIRMRPPRLPRPRPRPIHFPRP | -0.0141
20 | RRIRMRPPRLPRPRPRPIHQPRP | -0.108
21 | RRIRMRPPRLPRPRPRPIIPPRP | 0.000609
22 | RRIRMRPPRLPRPRPRPIIQPRP | -0.402

Row | Sequence | shrunken log2 fold change
23 | RRIRMRPPRLPRPRPRPILCPRP | 0.0427
24 | RRIRMRPPRLPRPRPRPINAPRP | -0.0931
25 | RRIRMRPPRLPRPRPRPINPPRP | -0.0782
26 | RRIRMRPPRLPRPRPRPINTPRP | -0.387
27 | RRIRMRPPRLPRPRPRPIQWPRP | 0.144
28 | RRIRMRPPRLPRPRPRPISVPRP | 0.103
29 | RRIRMRPPRLPRPRPRPITHPRP | 0.0509
30 | RRIRMRPPRLPRPRPRPITLPRP | -0.521
31 | RRIRMRPPRLPRPRPRPIVAPRP | 0.156
32 | RRIRMRPPRLPRPRPRPIVGPRP | 0.108
33 | RRIRMRPPRLPRPRPRPIVSPRP | -0.0362
34 | RRIRMRPPRLPRPRPRPIYPPRP | -0.125
35 | RRIRMRPPRLPRPRPRPKASPRP | 1.97
36 | RRIRMRPPRLPRPRPRPKDTPRP | 1.86
37 | RRIRMRPPRLPRPRPRPKEGPRP | -0.01
38 | RRIRMRPPRLPRPRPRPKETPRP | 0.201
39 | RRIRMRPPRLPRPRPRPKFHPRP | -0.174
40 | RRIRMRPPRLPRPRPRPKFIPRP | -0.182
41 | RRIRMRPPRLPRPRPRPKGRPRP | -0.00141
42 | RRIRMRPPRLPRPRPRPKHHPRP | 0.148
43 | RRIRMRPPRLPRPRPRPKIFPRP | 0.0739
44 | RRIRMRPPRLPRPRPRPKIIPRP | 0.102

Row | Sequence | shrunken log2 fold change
45 | RRIRMRPPRLPRPRPRPKIPPRP | 0.365
46 | RRIRMRPPRLPRPRPRPKKEPRP | -0.0374
47 | RRIRMRPPRLPRPRPRPKKFPRP | 0.358
48 | RRIRMRPPRLPRPRPRPKKTPRP | 1.46
49 | RRIRMRPPRLPRPRPRPKMNPRP | 0.501
50 | RRIRMRPPRLPRPRPRPKNIPRP | -0.232
51 | RRIRMRPPRLPRPRPRPKPHPRP | 1.19
52 | RRIRMRPPRLPRPRPRPKTAPRP | 2.56
53 | RRIRMRPPRLPRPRPRPKWTPRP | 0.0304
54 | RRIRMRPPRLPRPRPRPLCHPRP | 0.061
55 | RRIRMRPPRLPRPRPRPLDCPRP | 0.262
56 | RRIRMRPPRLPRPRPRPLDIPRP | -0.0561
57 | RRIRMRPPRLPRPRPRPLDKPRP | 1.96
58 | RRIRMRPPRLPRPRPRPLEHPRP | 0.0245
59 | RRIRMRPPRLPRPRPRPLEVPRP | 0.405
60 | RRIRMRPPRLPRPRPRPLFHPRP | -0.0668
61 | RRIRMRPPRLPRPRPRPLGLPRP | 0.717
62 | RRIRMRPPRLPRPRPRPLGNPRP | -0.0024
63 | RRIRMRPPRLPRPRPRPLIEPRP | 1.14
64 | RRIRMRPPRLPRPRPRPLIQPRP | 0.00597
65 | RRIRMRPPRLPRPRPRPLISPRP | 0.171
66 | RRIRMRPPRLPRPRPRPLKHPRP | -0.0893

Row | Sequence | shrunken log2 fold change
67 | RRIRMRPPRLPRPRPRPLLFPRP | 0.908
68 | RRIRMRPPRLPRPRPRPLLWPRP | 0.914
69 | RRIRMRPPRLPRPRPRPLMDPRP | 1.24
70 | RRIRMRPPRLPRPRPRPLMHPRP | 0.341
71 | RRIRMRPPRLPRPRPRPLNAPRP | 0.35
72 | RRIRMRPPRLPRPRPRPLPAPRP | 2.13
73 | RRIRMRPPRLPRPRPRPLPTPRP | 1.36
74 | RRIRMRPPRLPRPRPRPLQHPRP | 1.47
75 | RRIRMRPPRLPRPRPRPLRAPRP | 2.97
76 | RRIRMRPPRLPRPRPRPLRNPRP | 1.17
77 | RRIRMRPPRLPRPRPRPLSMPRP | -0.289
78 | RRIRMRPPRLPRPRPRPLTEPRP | 1.31
79 | RRIRMRPPRLPRPRPRPLTYPRP | -0.0782
80 | RRIRMRPPRLPRPRPRPLVGPRP | 0.73
81 | RRIRMRPPRLPRPRPRPLVKPRP | -0.174
82 | RRIRMRPPRLPRPRPRPLYGPRP | -0.281
83 | RRIRMRPPRLPRPRPRPMAPPRP | 0.218
84 | RRIRMRPPRLPRPRPRPMCKPRP | 0.00898
85 | RRIRMRPPRLPRPRPRPMEMPRP | 0.515
86 | RRIRMRPPRLPRPRPRPMFDPRP | -0.328
87 | RRIRMRPPRLPRPRPRPMHAPRP | 0.327
88 | RRIRMRPPRLPRPRPRPMHFPRP | -0.0157

Row | Sequence | shrunken log2 fold change
89 | RRIRMRPPRLPRPRPRPMHHPRP | 0.0123
90 | RRIRMRPPRLPRPRPRPMIRPRP | 0.00211
91 | RRIRMRPPRLPRPRPRPMKHPRP | 0.0546
92 | RRIRMRPPRLPRPRPRPMLMPRP | 0.0323
93 | RRIRMRPPRLPRPRPRPMMGPRP | 0.0255
94 | RRIRMRPPRLPRPRPRPMNLPRP | 0.11
95 | RRIRMRPPRLPRPRPRPMNYPRP | -0.082
96 | RRIRMRPPRLPRPRPRPMPHPRP | 0.161
97 | RRIRMRPPRLPRPRPRPMPIPRP | 0.0625
98 | RRIRMRPPRLPRPRPRPMPRPRP | 0.561
99 | RRIRMRPPRLPRPRPRPMPTPRP | 2.8
100 | RRIRMRPPRLPRPRPRPMPVPRP | 0.064
101 | RRIRMRPPRLPRPRPRPMQPPRP | -0.000921
102 | RRIRMRPPRLPRPRPRPMQTPRP | -0.00202
103 | RRIRMRPPRLPRPRPRPMRHPRP | 0.452
104 | RRIRMRPPRLPRPRPRPMSEPRP | 0.102
105 | RRIRMRPPRLPRPRPRPMSNPRP | 0.0851
106 | RRIRMRPPRLPRPRPRPMTGPRP | 0.0472
107 | RRIRMRPPRLPRPRPRPMTMPRP | 0.178
108 | RRIRMRPPRLPRPRPRPMTRPRP | 0.118
109 | RRIRMRPPRLPRPRPRPMVDPRP | 0.0184
